This assay addresses T1, VEGFR-3 full-length extracellular domain (Homo sapiens (Human), UniProt P35916 25-775).
T1 construct: the construct is not described; also called the full-length extracellular domain
T1 sequence: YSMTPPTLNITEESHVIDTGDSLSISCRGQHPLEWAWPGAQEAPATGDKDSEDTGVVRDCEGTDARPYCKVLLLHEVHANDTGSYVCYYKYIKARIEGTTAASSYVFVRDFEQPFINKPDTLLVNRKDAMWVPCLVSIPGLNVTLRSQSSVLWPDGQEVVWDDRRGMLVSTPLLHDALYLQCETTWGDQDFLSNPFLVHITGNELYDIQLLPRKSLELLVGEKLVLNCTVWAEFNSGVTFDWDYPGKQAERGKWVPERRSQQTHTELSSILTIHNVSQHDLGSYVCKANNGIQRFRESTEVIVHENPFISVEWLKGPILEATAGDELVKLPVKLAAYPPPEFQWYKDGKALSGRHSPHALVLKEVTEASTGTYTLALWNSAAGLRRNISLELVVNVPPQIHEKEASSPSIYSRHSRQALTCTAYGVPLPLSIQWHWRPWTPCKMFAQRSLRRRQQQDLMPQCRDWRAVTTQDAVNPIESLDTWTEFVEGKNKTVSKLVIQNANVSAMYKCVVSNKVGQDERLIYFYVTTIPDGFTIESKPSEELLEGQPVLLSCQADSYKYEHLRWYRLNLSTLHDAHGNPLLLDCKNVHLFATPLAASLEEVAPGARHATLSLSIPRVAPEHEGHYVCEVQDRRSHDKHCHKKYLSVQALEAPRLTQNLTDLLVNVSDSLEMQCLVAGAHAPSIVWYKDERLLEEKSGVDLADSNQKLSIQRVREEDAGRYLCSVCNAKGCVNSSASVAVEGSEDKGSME
Briefly: not described.

B1: VEGF-D (ligand)
chain: FYDIETLKVIDEEWQRTQCSPRETCVEVASELGKSTNTFFKPPCVNVFRCGGCCNEESLICMNTSTSYISKQLFEISVPLTSVPELVPVKVANHTGCKCLPTAPRHPYS
notes: Bought protein; also called vascular endothelial growth factor D
With B1, the binding result was “binds”.

The record behind these values is patent publication US20040037820A1 (published 2004).
